Tests used:
human furin, wild type = biological target: T1, human furin, wild type (Homo sapiens); assay: SEC; analytical gel permeation chromatography, Superdex 200 5/150 GL, 10 mM Hepes, pH 7.5, 100 mM NaCl, 1 mM CaCl2; proteins premixed at equimolar ratio, ~23 μM each; 0.2 ml/min; peak fractions by SDS-PAGE; details: both partners purified
T1 construct: furin, human; also called Furin^WT; source: purified
T1 chain: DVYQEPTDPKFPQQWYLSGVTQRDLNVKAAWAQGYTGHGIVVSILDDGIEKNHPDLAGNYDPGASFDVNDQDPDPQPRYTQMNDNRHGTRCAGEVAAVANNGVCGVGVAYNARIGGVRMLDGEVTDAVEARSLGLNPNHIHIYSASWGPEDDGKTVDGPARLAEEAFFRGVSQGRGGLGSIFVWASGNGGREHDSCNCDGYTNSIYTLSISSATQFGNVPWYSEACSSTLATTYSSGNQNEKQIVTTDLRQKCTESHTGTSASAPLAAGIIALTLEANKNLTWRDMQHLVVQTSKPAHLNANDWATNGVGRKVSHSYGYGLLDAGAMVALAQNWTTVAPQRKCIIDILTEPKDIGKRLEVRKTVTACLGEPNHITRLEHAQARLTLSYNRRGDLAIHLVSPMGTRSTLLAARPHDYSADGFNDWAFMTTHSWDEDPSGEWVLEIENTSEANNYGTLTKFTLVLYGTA

[1] = biological target: T2, dec-RVKR-CMK-inhibited human furin (Homo sapiens, covalently inhibited by decanoyl-RVKR-chloromethylketone (dec-RVKR-CMK)); assay: crystal structure; furin:RVKR-CMK:Nb14 complex (~9 mg/ml in 10 mM Hepes, pH 7.5, 100 mM NaCl, 2 mM CaCl2) crystallised in 0.1 M sodium acetate, pH 5.6, 16-18% PEG 3350; two copies of the complex in the asymmetric unit; details: both partners purified
T2 construct: furin, human; also called furin:RVKR-CMK; source: purified, complex with Nb14 purified by GPC
T2 chain: T1 chain

binding result (human furin, wild type): binds | binding result [1]: binds
B1: inhibitory camelid antibody Nb14 (VHH)
VHH: QVQLQESGGGLVQPGGSLTLSCAASGFTFSSYSMYWVRQAPGKGLEWVSSINRVGSNTDYADSVKGRFTISRDNAKNTLYLQMNSLKSEDTALYYCAVGMYAAPPWRGQGTQVTVSS
notes: they are in the deposited structures PDB 5JMO (complex with furin) and PDB 5JMR (free Nb14); also called nanobody Nb14; source: purification in Supplementary Information

Source: PMC5037460, “The structure of a furin-antibody complex explains non-competitive inhibition by steric exclusion of substrate conformers” (Scientific Reports, 2016)
